{
  "source": "patent US20220218659",
  "target": "Human ACLY, His-tagged, bacterially expressed and purified recombinant full length protein (UniProt P53396)",
  "sequence (P53396 whole entry)": "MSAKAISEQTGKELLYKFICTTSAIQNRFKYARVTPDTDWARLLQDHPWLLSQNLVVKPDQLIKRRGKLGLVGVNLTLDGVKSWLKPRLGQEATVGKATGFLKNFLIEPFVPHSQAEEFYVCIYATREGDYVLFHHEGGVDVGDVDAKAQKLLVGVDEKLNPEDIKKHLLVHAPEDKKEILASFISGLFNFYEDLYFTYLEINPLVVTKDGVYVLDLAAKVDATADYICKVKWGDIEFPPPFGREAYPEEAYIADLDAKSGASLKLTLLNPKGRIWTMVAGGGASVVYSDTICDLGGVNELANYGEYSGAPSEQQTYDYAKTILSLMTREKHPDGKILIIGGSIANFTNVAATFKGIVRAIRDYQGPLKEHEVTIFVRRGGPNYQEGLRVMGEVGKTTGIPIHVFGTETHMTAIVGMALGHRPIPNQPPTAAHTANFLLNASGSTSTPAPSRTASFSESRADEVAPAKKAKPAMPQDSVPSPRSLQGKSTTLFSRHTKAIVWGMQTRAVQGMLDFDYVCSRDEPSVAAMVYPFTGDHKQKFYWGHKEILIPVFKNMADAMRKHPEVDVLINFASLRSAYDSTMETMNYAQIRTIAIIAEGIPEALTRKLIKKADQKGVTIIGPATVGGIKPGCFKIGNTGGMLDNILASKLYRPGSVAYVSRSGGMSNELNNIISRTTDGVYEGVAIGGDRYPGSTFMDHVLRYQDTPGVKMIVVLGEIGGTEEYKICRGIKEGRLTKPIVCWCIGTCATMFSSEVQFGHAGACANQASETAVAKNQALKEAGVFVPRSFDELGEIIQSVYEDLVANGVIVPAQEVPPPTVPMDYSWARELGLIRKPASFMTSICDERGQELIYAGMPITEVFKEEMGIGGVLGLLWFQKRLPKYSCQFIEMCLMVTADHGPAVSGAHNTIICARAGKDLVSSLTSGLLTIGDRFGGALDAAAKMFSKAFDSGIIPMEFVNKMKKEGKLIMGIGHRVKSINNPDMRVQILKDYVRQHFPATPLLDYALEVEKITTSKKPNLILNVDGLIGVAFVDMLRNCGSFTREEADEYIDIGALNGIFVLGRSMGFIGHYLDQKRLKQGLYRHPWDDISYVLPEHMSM",
  "data": [
    {"substance": "Active recombinant Src kinase", "values": [
      {"measurement": "ACLY tyrosine residues phosphorylated (phosphoproteomics)", "value": "The three ACLY tyrosine residues, Y682, Y252, Y227, were common for Lyn and Src"}
    ]}
  ]
}
